Consider 13 molecules from patent US12703739 (VANDERBILT UNIVERSITY, dated 2026).

Among the targets are Gc of RVFV-ZH501 (Rift Valley Fever Virus strain ZH501); Gc of RVFV-SA51 (Rift Valley Fever Virus strain SA51); Gc of RVFV-MP-12 (Rift Valley Fever Virus strain MP-12); Gn of RVFV-ZH501 (Rift Valley Fever Virus strain ZH501); Gn of RVFV-SA51 (Rift Valley Fever Virus strain SA51); Gn of RVFV-MP-12 (Rift Valley Fever Virus strain MP-12).
Assay in all cases: cell-based or functional assay

B1: RVFV-326 (antibody, V domains shown)
VH: EAQLVESGGGLVKPGGSLRLSCAASGFSFSYAWMSWVRRLPGKGLEWVGRIKGKADGETTDYAAPVKGRFTISRDDSKTTVYLQMNTLKIEDTGVYYCTTDIGDFYDSIGYSYTDYWGQGTLVTVSS
VL: EIVLTQSPATLSLSPGERATLSCRASQSVSSYLAWYQQKPGQAPRLLIYDASNRATGIPVRFSGSGSGTDFTLTISSLEPEDFALYYCQQRSDWPPTFGQGTKVEIK
Turning to B1, in the assay with Gc of RVFV-ZH501, the “Fold-Change ZH501/MP-12 (ratio of neutralization IC50s)” value is 15.9 fold and the “IC50 (ng/ml), neutralization of RVFV-ZH501” value (“IC50 (ng/ml) … of RVFV-ZH501” below) amounted to 1110 ng/mL. In addition, in the assay with Gc of RVFV-SA51, the “IC50 (ng/ml), neutralization of RVFV-SA51” value (from here on “IC50 (ng/ml) … of RVFV-SA51”) worked out at 370 ng/mL. In addition, in the assay with Gc of RVFV-MP-12, the “IC50 (ng/ml), neutralization of RVFV-MP-12” value (from here on “IC50 (ng/ml) … of RVFV-MP-12”) came out at 70 ng/mL.

B2: RVFV-436 (antibody, V domains shown)
VH: QVQLHESGPGLVKPSETLSLTCGVSGYTISSDYYWGWIRQPPGKGLEWIGSIYQNGHTYYNPSLKSRVTISVDTSKNQFSLELSSVTAADTAVYYCARRGDCGADCYHFDYWGRGTAVTVSS
VL: SYEVTQPLSVSVSPGQTASITCSGEKLENKYVSWYQQKPGQSPVLVMYQDFKRPSGIPERFSGSNSGNTATLTISGTQAMDEADYYCQAWDRSTFYVFGTGTKVTVVG
On to B2, for which, in the assay with Gn of RVFV-ZH501, the “Fold-Change ZH501/MP-12 (ratio of neutralization IC50s)” value worked out at 1.8 fold and the “IC50 (ng/ml) … of RVFV-ZH501” value was determined as 4.57 ng/mL. For the same molecule, in the assay with Gn of RVFV-SA51, the “IC50 (ng/ml) … of RVFV-SA51” value came to 4.57 ng/mL. The “IC50 (ng/ml) … of RVFV-MP-12” value in the assay with Gn of RVFV-MP-12 is 2.5 ng/mL.

B3: RVFV-381 (antibody, V domains shown)
VH: QEQLVESGGGVVQPGRSLRLSCAASGFTLRGYGIYWVRQAPGKGLEWVAVISHDGKNESYTDSVKGRFSISRDKSKNTVFLQMNSLTTQDTSVYYCARWTEGSEEFYYHGLDVWGQGTTVTVSP
VL: SYELTQPPSVSVSPGQTARITCSGHLLPKQYAYWYQQKPGQAPTLVIYADYNRASGIPERFSGASSGTTVTLTITGVKAEDQADYYCQSIDNRFHYPMIFGGGTKLTVL
Take B3: in the assay with Gn of RVFV-ZH501, the “Fold-Change ZH501/MP-12 (ratio of neutralization IC50s)” value came to 2.3 fold and the “IC50 (ng/ml) … of RVFV-ZH501” value stood at 10000 ng/mL. Moreover, the “IC50 (ng/ml) … of RVFV-SA51” value with Gn of RVFV-SA51 stood at 10000 ng/mL. Moreover, the “IC50 (ng/ml) … of RVFV-MP-12” value in the assay with Gn of RVFV-MP-12 worked out at 4440 ng/mL.

B4: RVFV-121 (antibody, V domains shown)
VH: QMQLQESGPGLVKPSGTLSLTCAVSGDSISTSTWWSWVRQSPGKGLEWIGEIYHSESTNYNPSLKSRVSLSLDKSKNQLSLRLSSVTAADTGVYYCARGSLVFDYWGQGAQVVVSS
VL: EIVMTQSPATLSVSPGERATLSCRASQSVSSNLAWYQQKPGQAPRLLIYAASTRATGIPARFSGSGSGTEFTLTISSLQSEDFAVYYCQQFNNWPRTFGQGTKVEIK
In the case of B4, in the assay with Gc of RVFV-ZH501, the “Fold-Change ZH501/MP-12 (ratio of neutralization IC50s)” value stood at 31.7 fold and the “IC50 (ng/ml) … of RVFV-ZH501” value was 1110 ng/mL. Also, the “IC50 (ng/ml) … of RVFV-SA51” value with Gc of RVFV-SA51 is 1110 ng/mL. Also, in the assay with Gc of RVFV-MP-12, the “IC50 (ng/ml) … of RVFV-MP-12” value was found to be 35 ng/mL.

B5: RVFV-296 (antibody, V domains shown)
VH: QVQLVQSGSELKKSGASVKVSCRASGYTFTTYVMNWVRQAPGQGLEWMGWINTNTGNPTYAQGFTGRFVFSLDTSVSTAYLQINSLKAEDTAVYYCAREYNSFDYWGQGTLVTVSS
VL: QSVLTQPPSVSGAPGQRVTISCTGSSSNIGAGYDVHWYQQLPGTAPKLLIYDNNNRPSGVPDRFSGSRSGTSTSLAITGLQAEDEADYYCQSYDFRLSGSVFGGGTKVTVL
As to B5, in the assay with Gn of RVFV-ZH501, the “Fold-Change ZH501/MP-12 (ratio of neutralization IC50s)” value came out at 0.2 fold and the “IC50 (ng/ml) … of RVFV-ZH501” value turned out to be 120 ng/mL. Further, the “IC50 (ng/ml) … of RVFV-SA51” value with Gn of RVFV-SA51 turned out to be 120 ng/mL. Besides, the “IC50 (ng/ml) … of RVFV-MP-12” value with Gn of RVFV-MP-12 turned out to be 638 ng/mL.

B6: RVFV-429 (antibody, V domains shown)
VH: QVQLVQSGAEVKKPGSSVKVSCRASGGTFSSYTISWVRQAPGQGLEWMGGIIPILGLTKFAQKFQDRVTITADISATTTYMELSSLTSEDTAVYYCARNGEQLEWSYYYGMDVWGQGTTVTVSS
VL: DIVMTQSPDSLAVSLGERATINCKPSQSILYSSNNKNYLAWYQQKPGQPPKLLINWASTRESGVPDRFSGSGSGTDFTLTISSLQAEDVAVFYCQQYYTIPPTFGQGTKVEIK
B6: in the assay with Gn of RVFV-ZH501, the “Fold-Change ZH501/MP-12 (ratio of neutralization IC50s)” value came to 5.1 fold and the “IC50 (ng/ml) … of RVFV-ZH501” value came to 4.57 ng/mL. In addition, the “IC50 (ng/ml) … of RVFV-SA51” value in the assay with Gn of RVFV-SA51 was 4.57 ng/mL. Further, the “IC50 (ng/ml) … of RVFV-MP-12” value in the assay with Gn of RVFV-MP-12 worked out at 0.9 ng/mL.

B7: RVFV-250 (antibody, V domains shown)
VH: QVQLQESGPGLAKPSETLSLTCTVSGGSISSYFWSWIRQPAGKGLEWIGRIHTTGSTNYNPSLKNRVIMSVDTSKNQFSLNLSSVTAADTAVYYCAREGTAFDIWGQGTMVTVSS
VL: SYELTQSPSVSVSPGQTASIPCSGDKLGDKYACWYQQKPGQSPVLVIYQDTKRPSGIPERFSGSNSGNTATLTISETQAMDEADYYCQAWDSSTPWVFGGGTKLTVL
For the molecule B7, in the assay with Gc of RVFV-ZH501, the “Fold-Change ZH501/MP-12 (ratio of neutralization IC50s)” value stood at 2.4 fold and the “IC50 (ng/ml) … of RVFV-ZH501” value was 120 ng/mL. In the assay with Gc of RVFV-SA51, the “IC50 (ng/ml) … of RVFV-SA51” value was 120 ng/mL. Moreover, the “IC50 (ng/ml) … of RVFV-MP-12” value in the assay with Gc of RVFV-MP-12 worked out at 51 ng/mL.

B8: RVFV-379 (antibody, V domains shown)
VH: QVQLQESGPGLVKPSQTLSLTCTVSGDSISGGDYYWSWIRRPAGEGLEWIGRVHTTGSTDYNPSLRTRVTISIDTSKNHFFLKMTSVTAADTAVYYCAREGDYSAWFDPWGQGALVTVSS
VL: DIQMTQSPSSLSASIGDRVTITCRASQHIESFLNWYQQKPGKAPKLLIYIASTLQGGVPSRFSGRGFGTDFTLTINSLQPEDFATYYCQQSYTISPITFGQGTRLEIK
Turning to B8, in the assay with Gn of RVFV-ZH501, the “Fold-Change ZH501/MP-12 (ratio of neutralization IC50s)” value worked out at 3.5 fold and the “IC50 (ng/ml) … of RVFV-ZH501” value was 4.57 ng/mL. In the assay with Gn of RVFV-SA51, the “IC50 (ng/ml) … of RVFV-SA51” value is 13 ng/mL. Besides, the “IC50 (ng/ml) … of RVFV-MP-12” value with Gn of RVFV-MP-12 was determined as 1.3 ng/mL.

B9: RVFV-226 (antibody, V domains shown)
VH: EVQLVESGGGLVQPGRSLRLSCAASGFTFDDYAMHWVRQAPGKGLEWVSGISWNSGSIGYVDSVKGRFTISRDNAKNSLYLQMNSLRAEDTALYYCAKGLVGAIHDAFDIWGQGTMVTVSS
VL: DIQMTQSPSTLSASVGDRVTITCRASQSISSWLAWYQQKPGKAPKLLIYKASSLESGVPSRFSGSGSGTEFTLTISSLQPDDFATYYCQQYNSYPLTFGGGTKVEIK
Turning to B9, in the assay with Gn of RVFV-ZH501, the “Fold-Change ZH501/MP-12 (ratio of neutralization IC50s)” value was found to be 1.3 fold and the “IC50 (ng/ml) … of RVFV-ZH501” value is 10000 ng/mL. The “IC50 (ng/ml) … of RVFV-SA51” value with Gn of RVFV-SA51 amounted to 3330 ng/mL. Besides, the “IC50 (ng/ml) … of RVFV-MP-12” value in the assay with Gn of RVFV-MP-12 worked out at 7690 ng/mL.

B10: RVFV-401 (antibody, V domains shown)
VH: QITFKESGPTLVKPTQTLTLTCTFSGFSLSTSGVGVGWIRQPPGKALEWLALLYWNDDKRYTPSLRSRLTITKDTSKNQVVLTMTDMDPVDTATYYCARKPRDDFLRLTMMGGGDYFDYWGQGTLVTVSS
VL: SYELTQPPSVSVSPGQTARITCSGDALPDQYAYWYQQKPGQAPVLVLYKDNERPSGIPERFSGSTSGTTVTLTISGVQAEDEADYYCQSADTSTAYHVIFGGGTKLTVL
B10: in the assay with Gn of RVFV-ZH501, the “Fold-Change ZH501/MP-12 (ratio of neutralization IC50s)” value amounted to 0.2 fold and the “IC50 (ng/ml) … of RVFV-ZH501” value came to 370 ng/mL. Further, in the assay with Gn of RVFV-SA51, the “IC50 (ng/ml) … of RVFV-SA51” value was found to be 1110 ng/mL. Besides, in the assay with Gn of RVFV-MP-12, the “IC50 (ng/ml) … of RVFV-MP-12” value came to 2120 ng/mL.

B11: RVFV-249 (antibody, V domains shown)
VH: QVLLVQSEAEVRKPGASVKISCKTSGYTFTTYFMHWVRQAPGQGLEWVAIVDPSTGNTGYAQRFQGRVTVTRDTSTGTLFMELTSLTTEDTAMYYCGRDRGSRAVDSWGQGTLVTVFS
VL: QSVLTQPPSVSGAPGQRVTISCSGSSSNVGPNTVSWYQQLPGVAPKLLIYRNNQRPSGVPDRFSGSKFGTSASLVIGGLQSEDEADYYCAAWDDSLNGHMVFGGGTKVAVL
Regarding B11, in the assay with Gc of RVFV-ZH501, the “Fold-Change ZH501/MP-12 (ratio of neutralization IC50s)” value was 4.4 fold and the “IC50 (ng/ml) … of RVFV-ZH501” value turned out to be 30000 ng/mL. The “IC50 (ng/ml) … of RVFV-SA51” value with Gc of RVFV-SA51 is 30000 ng/mL. Besides, the “IC50 (ng/ml) … of RVFV-MP-12” value with Gc of RVFV-MP-12 was 6790 ng/mL.

B12: RVFV-405 (antibody, V domains shown)
VH: EVQLVESGGGLVQPGGSLRLSCAASGFTFSSFEMNWVRQAPGKGLEWVSYISRSGTTKHYADSVKGRFAISRDDAKNSLYLQMNSLRAEDTAVYYCARGGARVLQAPLDYWGQGTLVTVSS
VL: SYELTQPPSVSVAPGETARITCGGTNIGNKSVRWYQQKPGQAPVLVIYYDNDRPSGIPERFSGSNSGNTATLTISRVEAGDEADYYCQVWDNSSDHAVFGGGTKLTVL
Consider B12, for which, in the assay with Gn of RVFV-ZH501, the “Fold-Change ZH501/MP-12 (ratio of neutralization IC50s)” value stood at 1 fold and the “IC50 (ng/ml) … of RVFV-ZH501” value was determined as 30000 ng/mL. Besides, in the assay with Gn of RVFV-SA51, the “IC50 (ng/ml) … of RVFV-SA51” value is 30000 ng/mL. Further, the “IC50 (ng/ml) … of RVFV-MP-12” value with Gn of RVFV-MP-12 was determined as 30000 ng/mL.

B13: RVFV-426 (antibody, V domains shown)
VH: QVQLQESGPGLLKPSQTLSLTCGVSGDSITSTGDSWTWIRQPPGKGLEWIGYIYYSGSAYYNPSLKSRVTISVDTSKNQFSLRLRSVTAADTAVYYCARALEYGAGSWAAAFWGQGILVTVSS
VL: SYEVTQPPSVSVSPGQTASITCSGDKLVERYVSWYQQKPGQSPLLVIYHDIKRPSGIPERFSGSNSGNTATLTISGTQPMDEADYYCQAWDSSTVLFGGGTKLTVL
For the molecule B13, in the assay with Gn of RVFV-ZH501, the “Fold-Change ZH501/MP-12 (ratio of neutralization IC50s)” value came to 4.5 fold and the “IC50 (ng/ml) … of RVFV-ZH501” value was found to be 41 ng/mL. For the same molecule, in the assay with Gn of RVFV-SA51, the “IC50 (ng/ml) … of RVFV-SA51” value was 120 ng/mL. For the same molecule, in the assay with Gn of RVFV-MP-12, the “IC50 (ng/ml) … of RVFV-MP-12” value worked out at 9.1 ng/mL.
